Experiments:
Assay in all cases: holdup assay
Design in all cases: key: below the threshold = too weak to quantify, mostly under pKd 3.1 to 4
Conditions in all cases: plain residues with an end cap or a label only (N-terminal biotin on a linker: ado-ado)
[1] = biological target: T1, DLG3_1, Q92796
T1 sequence (Q92796 125-227, limits assumed, looked up): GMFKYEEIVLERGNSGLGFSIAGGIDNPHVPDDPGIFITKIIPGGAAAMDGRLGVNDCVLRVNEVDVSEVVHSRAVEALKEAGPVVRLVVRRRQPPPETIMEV

[2] = biological target: Inadl_8, Q8NI35
Chain of Inadl_8, Q8NI35 (Q8NI35 1425-1530): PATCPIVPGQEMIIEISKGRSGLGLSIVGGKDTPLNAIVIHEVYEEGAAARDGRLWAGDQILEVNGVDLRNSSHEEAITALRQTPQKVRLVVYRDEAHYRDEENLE

[3] = biological target: SCRIB_2, Q14160
Chain of SCRIB_2, Q14160 (Q14160 857-960): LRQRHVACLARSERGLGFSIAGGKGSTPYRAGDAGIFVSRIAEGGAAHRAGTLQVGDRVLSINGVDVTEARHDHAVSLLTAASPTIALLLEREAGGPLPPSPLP

[4] = biological target: GORASP1, Q9BQQ3
Chain of GORASP1, Q9BQQ3 (Q9BQQ3 1-208): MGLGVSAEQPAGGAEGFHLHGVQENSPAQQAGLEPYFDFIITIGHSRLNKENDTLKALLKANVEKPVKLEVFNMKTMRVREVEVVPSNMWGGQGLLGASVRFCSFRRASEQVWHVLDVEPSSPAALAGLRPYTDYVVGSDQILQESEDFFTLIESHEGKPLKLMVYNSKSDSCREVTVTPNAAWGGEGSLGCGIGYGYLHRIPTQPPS

[5] = biological target: FRMPD2_1, Q68DX3
Chain of FRMPD2_1, Q68DX3 (Q68DX3 770-861): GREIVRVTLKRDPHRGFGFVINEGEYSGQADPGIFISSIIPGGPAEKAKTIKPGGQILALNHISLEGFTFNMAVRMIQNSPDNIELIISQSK

[6] = biological target: T2, DLG3_2, Q92796
T2 sequence (Q92796 221-321, limits assumed, looked up): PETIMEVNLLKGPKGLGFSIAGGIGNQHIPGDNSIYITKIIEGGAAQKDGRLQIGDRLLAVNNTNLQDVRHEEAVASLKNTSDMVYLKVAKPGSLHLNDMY

[7] = biological target: DLG4_1, P78352
Chain of DLG4_1, P78352 (P78352 62-152): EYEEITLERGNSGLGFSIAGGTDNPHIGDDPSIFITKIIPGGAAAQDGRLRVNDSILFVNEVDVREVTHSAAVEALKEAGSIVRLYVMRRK

[8] = biological target: CASK, O14936
Chain of CASK, O14936 (O14936 487-570): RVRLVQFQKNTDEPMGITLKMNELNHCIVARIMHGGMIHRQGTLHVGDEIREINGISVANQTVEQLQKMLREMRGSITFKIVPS

[9] = biological target: T3, HTRA3, P83110
T3 sequence (P83110 354-453, limits assumed, looked up): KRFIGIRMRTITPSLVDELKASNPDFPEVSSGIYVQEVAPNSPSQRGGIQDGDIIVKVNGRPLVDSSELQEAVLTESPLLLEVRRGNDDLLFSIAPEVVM

[10] = biological target: Inadl_5, Q8NI35
Chain of Inadl_5, Q8NI35 (Q8NI35 673-780): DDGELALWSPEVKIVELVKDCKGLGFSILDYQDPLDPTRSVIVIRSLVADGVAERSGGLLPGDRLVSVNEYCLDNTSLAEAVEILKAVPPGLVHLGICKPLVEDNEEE

[11] = biological target: LAP2, Q96RT1
Chain of LAP2, Q96RT1 (Q96RT1 other isoform, or with tags, fused parts or gaps): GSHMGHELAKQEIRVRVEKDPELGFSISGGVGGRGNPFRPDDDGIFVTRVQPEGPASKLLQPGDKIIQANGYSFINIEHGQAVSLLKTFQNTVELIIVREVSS

[12] = biological target: T4, RHPN1, Q8TCX5
T4 sequence (Q8TCX5 508-602, limits assumed, looked up): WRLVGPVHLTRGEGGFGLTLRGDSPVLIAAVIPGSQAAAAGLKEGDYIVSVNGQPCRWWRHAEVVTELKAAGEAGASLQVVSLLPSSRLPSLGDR

[13] = biological target: T5, LIN7A, O14910
T5 sequence (O14910 103-200, limits assumed, looked up): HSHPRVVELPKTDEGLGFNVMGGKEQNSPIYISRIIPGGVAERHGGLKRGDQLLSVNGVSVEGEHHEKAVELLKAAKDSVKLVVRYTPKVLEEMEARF

[14] = biological target: T6, GRIP1_7, Q9Y3R0
T6 sequence (Q9Y3R0 999-1096, limits assumed, looked up): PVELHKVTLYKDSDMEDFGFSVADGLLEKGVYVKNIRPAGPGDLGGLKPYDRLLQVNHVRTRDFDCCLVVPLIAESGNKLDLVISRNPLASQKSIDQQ

[15] = biological target: FRMPD2_3, Q68DX3
Chain of FRMPD2_3, Q68DX3 (Q68DX3 1073-1166): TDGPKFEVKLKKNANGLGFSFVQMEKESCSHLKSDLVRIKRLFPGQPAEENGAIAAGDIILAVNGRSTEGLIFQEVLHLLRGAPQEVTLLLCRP

[16] = biological target: GRID2IP_1, A4D2P6
Chain of GRID2IP_1, A4D2P6 (A4D2P6 1-87): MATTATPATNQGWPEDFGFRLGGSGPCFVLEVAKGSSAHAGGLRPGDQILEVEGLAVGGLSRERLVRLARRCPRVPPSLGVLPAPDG

[17] = biological target: T7, NHERF3_3, Q5T2W1
T7 sequence (Q5T2W1 238-333, limits assumed, looked up): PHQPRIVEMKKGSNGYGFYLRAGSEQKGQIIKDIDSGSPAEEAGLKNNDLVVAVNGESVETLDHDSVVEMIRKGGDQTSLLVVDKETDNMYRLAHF

[18] = biological target: MAGI1_1, Q96QZ7
Chain of MAGI1_1, Q96QZ7 (Q96QZ7 1-106): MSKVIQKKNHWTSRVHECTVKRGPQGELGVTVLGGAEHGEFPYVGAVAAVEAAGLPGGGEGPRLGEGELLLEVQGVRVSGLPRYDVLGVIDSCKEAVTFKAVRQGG

[19] = biological target: T8, PDZD2_2, O15018
T8 sequence (O15018 329-429, limits assumed, looked up): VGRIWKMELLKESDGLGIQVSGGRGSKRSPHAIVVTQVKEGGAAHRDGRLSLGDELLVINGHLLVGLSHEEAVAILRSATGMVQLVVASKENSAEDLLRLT

[20] = biological target: T9, MPDZ_5, O75970
T9 sequence (O75970 695-796, limits assumed, looked up): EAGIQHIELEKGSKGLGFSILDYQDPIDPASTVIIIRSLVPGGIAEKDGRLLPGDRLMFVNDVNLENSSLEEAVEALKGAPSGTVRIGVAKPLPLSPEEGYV

[21] = biological target: GORASP2, Q9H8Y8
[22] = biological target: FRMPD2_2, Q68DX3
Chain of FRMPD2_2, Q68DX3 (Q68DX3 944-1038): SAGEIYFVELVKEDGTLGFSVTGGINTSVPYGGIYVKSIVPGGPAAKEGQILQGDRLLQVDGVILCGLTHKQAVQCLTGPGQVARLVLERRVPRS

[23] = biological target: T10, SNTB1, Q13884
T10 sequence (Q13884 107-205, limits assumed, looked up): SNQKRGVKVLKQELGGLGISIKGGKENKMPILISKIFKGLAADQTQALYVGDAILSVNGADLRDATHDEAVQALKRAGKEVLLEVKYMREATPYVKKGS

[24] = biological target: TJP1_2, Q07157
Chain of TJP1_2, Q07157 (Q07157 181-274): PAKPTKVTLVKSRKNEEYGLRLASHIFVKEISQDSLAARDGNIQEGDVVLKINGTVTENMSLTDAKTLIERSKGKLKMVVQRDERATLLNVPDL

[25] = biological target: MAGI3_2, Q5TCQ9
Chain of MAGI3_2, Q5TCQ9 (Q5TCQ9 398-503): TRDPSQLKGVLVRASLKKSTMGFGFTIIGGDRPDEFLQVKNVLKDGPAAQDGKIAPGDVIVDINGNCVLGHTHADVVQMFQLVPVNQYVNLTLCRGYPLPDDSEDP

[26] = biological target: T11, NHERF3_4, Q5T2W1
T11 sequence (Q5T2W1 373-468, limits assumed, looked up): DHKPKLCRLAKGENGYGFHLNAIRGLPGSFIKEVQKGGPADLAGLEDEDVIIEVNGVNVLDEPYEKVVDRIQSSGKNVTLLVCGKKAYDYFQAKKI

[27] = biological target: MAGI2_6, Q86UL8
Chain of MAGI2_6, Q86UL8 (Q86UL8 1141-1229): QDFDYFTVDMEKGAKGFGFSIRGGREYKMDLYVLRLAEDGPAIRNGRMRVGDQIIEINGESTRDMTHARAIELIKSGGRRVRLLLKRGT

Binder | pKd [1] | pKd [2] | pKd [3] | pKd [4] | pKd [5] | pKd [6] | pKd [7] | pKd [8] | pKd [9] | pKd [10] | pKd [11] | pKd [12] | pKd [13] | pKd [14] | pKd [15] | pKd [16] | pKd [17] | pKd [18] | pKd [19] | pKd [20] | also measured
EDPRVEVTQF [SLC22A9, Q8IVM8] | below the threshold | below the threshold | below the threshold | below the threshold | below the threshold | 4.17 | below the threshold | below the threshold | below the threshold | below the threshold | below the threshold | 4.4 | below the threshold | below the threshold | below the threshold | below the threshold | below the threshold | below the threshold | below the threshold | below the threshold | pKd [21]: below the threshold; pKd [22]: below the threshold; pKd [23]: below the threshold; pKd [24]: below the threshold; pKd [25]: below the threshold; pKd [26]: 4.58; pKd [27]: 3.87
LAHVKHKEQI [AQP3, Q92482] | below the threshold | below the threshold | below the threshold | below the threshold | below the threshold | below the threshold | below the threshold | below the threshold | below the threshold | below the threshold | below the threshold | below the threshold | below the threshold | below the threshold | below the threshold | below the threshold | below the threshold | below the threshold | below the threshold | below the threshold | pKd [21]: below the threshold; pKd [22]: below the threshold; pKd [23]: below the threshold; pKd [24]: below the threshold; pKd [25]: below the threshold; pKd [26]: below the threshold; pKd [27]: below the threshold
